From paper PMC8442553 (Science (New York, N.Y.), 2019)

Target: T1, Rsc7 (yeast, UniProt P32832 1-435)
T1 sequence: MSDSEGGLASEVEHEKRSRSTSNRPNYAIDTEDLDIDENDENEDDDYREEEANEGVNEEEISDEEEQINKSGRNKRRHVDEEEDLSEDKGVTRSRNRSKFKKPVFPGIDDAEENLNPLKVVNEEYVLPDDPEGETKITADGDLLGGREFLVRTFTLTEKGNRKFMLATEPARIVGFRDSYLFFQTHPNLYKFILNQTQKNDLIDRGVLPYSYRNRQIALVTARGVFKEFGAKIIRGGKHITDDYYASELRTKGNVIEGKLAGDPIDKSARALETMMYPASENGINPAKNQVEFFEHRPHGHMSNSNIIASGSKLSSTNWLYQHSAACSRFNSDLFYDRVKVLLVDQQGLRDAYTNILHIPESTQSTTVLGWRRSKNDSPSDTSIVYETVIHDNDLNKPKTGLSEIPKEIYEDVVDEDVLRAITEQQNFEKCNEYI
Test: cryo-EM structure

B1: Sfh1 (natural protein, yeast)
chain: MSHQNQLIPQAYISNFHNRLTNEDDGIPIFTMAQQTRQHKRAKVVNYAEYDNDLFDEFNMNGSNFNNADTHYKDNAVSHENTPALTNGVTMDGSEYNVLENMNGADSIISNNKYDAGSNMVVESLSGLNSNNNASNGPSNKAQAQDIGNAVLPDLQDQHHNPFNILRYPKIRDTFINGKVVSPYRLNTDQETKANANSGEAIMIPITLDIEHMGHTIKDQFLWNYNDDSISPEEFASIYCKDLDMTSATLQTQIANIIKEQLKDLENIAATEIMSDLHVIINLTCNLQDRFFEDNFQWNLNDKSLTPERFATSIVQDLGLTREFIPLISQSLHETILKIKKDWVDGHLIQDHVPNDAAFGYLSGIRLDIDELGSNWCPRVEILTKEEIQKREIEKERNLRRLKRETDRLSRRGRRRLDDLETTMRM
binding result: binds
